# Results taken from patent US11884743B2, “Preparation and application of an intact recombinant antibody specific to clothianidin based on the identified variable region sequence” (Zhejiang University, priority 2020, dated 2024).
# B1: intact recombinant antibody against clothianidin: Recombinant mouse IgG1/kappa antibody, VH SEQ ID NO: 2, VL SEQ ID NO: 4, expressed in HEK293F cells (antibody, listed as Mus musculus, V domains shown)
# VH: EVQLQQSGPELVKPGASVKMSCKASGYTFTNYVMHWVKQKPGQGLEWIGFFYPYIDYTKYNEMFKGKATLTSDTSSSTAYMELSGLTSEDSAVYFCARSQFFYRYDYFDYWGQGTALTVSS
# VL: DVLMTQTPLSLPVSLGDQASISCRSSQNIVHSNGNTYLEWYLQKPGQSPKVLIYKVSNRFSGVPDRFSGSGSGTDFTLKINRVEAEDLGIYYCFQGSHVPFTFGSGTKLEIK
# Columns and labels:
# [1] = heterologous competitive indirect ELISA (coating antigen imidaclothiz-OVA); assay type: binding
# Description: In the early preparation stage of parental ascitic monoclonal antibodies, the assay sensitivity difference was compared between the homologous competitive indirect ELISA (coating antigen was clothianidin-OVA) and the heterologous competitive indirect ELISA (coating antigen was imidaclothiz-OVA). […] Therefore, in the present disclosure, the heterologous competitive indirect ELISA was used to evaluate the sensitivity and specificity of the intact recombinant antibody against clothianidin. A 96-well plate was coated with imidaclothiz-OVA as the heterologous competitive antigen; subsequently, ELISA was performed using a rabbit anti-mouse IgG-HRP as a detection antibody, tetramethylbenzidine (TMB) as a reaction substrate, and clothianidin and other neonicotinoid pesticide standards as analytes.
# [2] = antibody binding kinetics by surface plasmon resonance (SPR); conditions: CM7 chip, antibody coupled at pH 5.0, clothianidin 0.78-50 nM
# Experimental: The CM7 chip was used in this invention, and the optimal pH for both antibodies was 5.0. The final signal values of the antibodies coupled on the chip were 38663 RU and 39854 RU, respectively. Kinetic experiments were performed to determine the affinity of both the parental ascitic monoclonal antibody and the intact recombinant antibody to clothianidin at a range of analyte concentrations ([…], and 0.78 nM).
molecule,measurement,setting,value
B1,Sensitivity (IC50),[1],4.62 ng/mL
same,detection range for ELISA (IC20-IC80),[1],0.92 to 23.04 ng/mL
same,Kd,[2],3.24 nM
